Measurements from PMC6937325, “Tuning PFKFB3 Bisphosphatase Activity Through Allosteric Interference” (Scientific Reports, 2019).

Columns and labels:
[1] = target: T1, human inducible phospho-fructokinase bisphosphatase isoform 3, PFKFB3 (human), Q16875; assay: MST; compound in MST buffer mixed 1:1 with 100 nM RED-NHS labeled recombinant PFKFB3, incubated 20 min at room temperature; Nanotemper
[2] = target: T1, human inducible phospho-fructokinase …

T1 sequence (Q16875 whole entry, canonical isoform): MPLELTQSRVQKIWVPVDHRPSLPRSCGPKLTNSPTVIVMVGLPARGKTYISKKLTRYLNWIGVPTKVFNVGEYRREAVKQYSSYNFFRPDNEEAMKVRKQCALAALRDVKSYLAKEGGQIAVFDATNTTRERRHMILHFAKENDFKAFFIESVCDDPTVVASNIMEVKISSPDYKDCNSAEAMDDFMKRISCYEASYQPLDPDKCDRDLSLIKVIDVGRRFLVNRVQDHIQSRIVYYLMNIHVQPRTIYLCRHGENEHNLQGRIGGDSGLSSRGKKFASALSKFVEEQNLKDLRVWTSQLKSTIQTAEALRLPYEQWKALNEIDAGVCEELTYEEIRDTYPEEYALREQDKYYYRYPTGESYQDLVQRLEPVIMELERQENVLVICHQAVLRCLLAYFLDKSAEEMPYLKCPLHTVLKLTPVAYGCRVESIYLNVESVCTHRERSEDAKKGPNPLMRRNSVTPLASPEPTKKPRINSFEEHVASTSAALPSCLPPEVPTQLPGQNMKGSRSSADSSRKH

SFLLR (modifications not checked) [compound 5] was tested. Which Kd [1] did it give?
Its Kd is 44 µM.

YSGFLT (modifications not checked) [compound 4] was tested. Which Kd [1] did it give?
Its Kd is 18 µM.

What about the PFKFB3 bisphosphatase velocity (LC-MS/MS of F6P) with compound 4, substrate F2,6BP 20-50 µM; not significantly different from enzyme alone (nmol/min of F6P per nmol of enzyme) [2] of the same binder?
The PFKFB3 bisphosphatase velocity (LC-MS/MS of F6P) with compound 4, substrate F2,6BP 20-50 µM; not significantly different from enzyme alone (nmol/min of F6P per nmol of enzyme) was 0.14.
